Test results reported in paper PMC5543128.

Biological target: T1, FAM-αC-conotoxin PrXA (Conus parius, UniProt P0C8S5 52-83)
T1 chain: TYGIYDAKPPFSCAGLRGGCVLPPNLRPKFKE
Assay: fluorescence anisotropy; no anisotropy change
Settings: tags: 5,6-carboxyfluorescein (FAM)

B1: S1 scramble (ssDNA)
DNA: GCCTGTTGTGAGCCTCCTGTCGAAGGGGATGGACCCCTACTTCATTCGCCCGCCTTGAGCGTTTATTCTTGTCTCCC
binding result: no binding
